Patent US20210316003A1 (Immunomedics, Inc., priority 2020, published 2021)
Read-outs that look alike come from different tables or passages of the source.

Tests used:
[1] = In vivo animal studies: release of SN-38 from the conjugate
From the text: Plasma CEA and CA19-9 correlated with responses.

[2] = system: patients with metastatic urothelial cancer (mUC)
Description: Endpoints included safety, investigator-evaluated objective response rate (ORR per RECIST 1.1), clinical benefit rate, duration of response (DOR), progression-free survival (PFS), and overall survival (OS). Sequencing analysis of differentially mutated and expressed genes and pathways was performed in subsets of tumors from responders and non-responders.
Hematopoietic growth factors or blood transfusions were allowed at the investigator's discretion, but not prior to the first dose. Other supportive care (antiemetics, anti-diarrheal medications, or bone-stabilizing agents) were allowed as medically needed.
Additional secondary objectives included assessment of pharmacokinetics and immunogenicity, which were previously reported by Ocean and colleagues (Ocean et al., 2017, Cancer 123:3843-54). Safety evaluations included adverse events (AEs), serious adverse events (SAEs), laboratory safety evaluations, vital signs, physical examinations, and 12-lead electrocardiograms (ECG; performed at baseline, after completion of the infusion on day 1 of every even-numbered treatment cycle, at the end of treatment, and at the end of the study). AEs were graded according to the National Cancer Institute Common Terminology Criteria for Adverse Events, version 4.0.
The data cut-off date for this analysis was Sep. 1, 2018. ORR and CBR were calculated with 95% confidence intervals estimated by the Clopper-Pearson method (Clopper & Pearson, 1934, Biometrika 26:404-13). PFS, OS, and time-to-event endpoints were analyzed by the Kaplan-Meier method, with medians and corresponding 95% confidence intervals determined by the Brookmeyer and Crowley method with log-log transformation. Descriptive statistics were used to characterize AEs. Fischer's exact test was applied to a matrix of pathway-associated gene counts of mutated and wild type phenotypes between responders and non-responders to identify pathways enriched in either of the two response groups. P-values for single sample GSEA (ssGSEA) enrichment score differences between the responder and non-responder patient groups were obtained from the Mann-Whitney statistical test.

[3] = mUC, N = 45, regardless of causality
[4] = mUC, N = 45, listed as Sacituzumab Govitecan

sacituzumab govitecan
SN-38 released from the conjugate daily [1]: 50%
Maximum tolerated dose ([2]; days 1 and 8 every 21 days, intravenous): 10 mg/kg
Patients with dose reductions ([2]; mUC, 18 of 45): 40%
AEs leading to death or treatment-related deaths ([2]; mUC, N = 45): no treatment-related deaths were reported
Anemia, grade ≥3 ([2]; mUC, N = 45): 13%
Diarrhea, grade ≥3 ([2]; mUC, N = 45): 9%
Discontinued for treatment-related AE, % ([2]; mUC, N = 45): (11.1) %
Fatigue, grade ≥3 ([2]; mUC, N = 45): 9%
Febrile neutropenia, grade ≥3 ([2]; mUC, N = 45): 7%
Hypophosphatemia, grade ≥3 ([2]; mUC, N = 45): 11%
Neutropenia, grade ≥3 ([2]; mUC, N = 45): 38%
Peripheral neuropathy or cardiovascular AEs of grade 3 or higher ([2]; mUC, N = 45): no cases
Alopecia, Any Grade, % of patients [2, 3]: (40.0) %
Alopecia, Any Grade, No. of patients [2, 3]: 18
Alopecia, Grade 3, No. of patients [2, 3]: 0
Alopecia, Grade 4, No. of patients [2, 3]: 0
Anemia, Any Grade, % of patients [2, 3]: (33.3) %
Anemia, Any Grade, No. of patients [2, 3]: 15
Anemia, Grade 3, % of patients [2, 3]: (13.3) %
Anemia, Grade 3, No. of patients [2, 3]: 6
Anemia, Grade 4, No. of patients [2, 3]: 0
Any adverse event, Any Grade, % of patients [2, 3]: (100) %
Any adverse event, Any Grade, No. of patients [2, 3]: 45
Any adverse event, Grade 3, % of patients [2, 3]: (55.6) %
Any adverse event, Grade 3, No. of patients [2, 3]: 25
Any adverse event, Grade 4, % of patients [2, 3]: 17.8%
Any adverse event, Grade 4, No. of patients [2, 3]: 8
Back pain, Any Grade, % of patients [2, 3]: (22.2) %
Back pain, Any Grade, No. of patients [2, 3]: 10
Back pain, Grade 3, No. of patients [2, 3]: 0
Back pain, Grade 4, No. of patients [2, 3]: 0
Constipation, Any Grade, % of patients [2, 3]: (44.4) %
Constipation, Any Grade, No. of patients [2, 3]: 20
Constipation, Grade 3, No. of patients [2, 3]: 0
Constipation, Grade 4, No. of patients [2, 3]: 0
Cough, Any Grade, % of patients [2, 3]: (31.1) %
Cough, Any Grade, No. of patients [2, 3]: 14
Cough, Grade 3, No. of patients [2, 3]: 0
Cough, Grade 4, No. of patients [2, 3]: 0
Decreased appetite, Any Grade, % of patients [2, 3]: (37.8) %
Decreased appetite, Any Grade, No. of patients [2, 3]: 17
Decreased appetite, Grade 3, No. of patients [2, 3]: 0
Decreased appetite, Grade 4, No. of patients [2, 3]: 0
Diarrhea, Any Grade, % of patients [2, 3]: (68.9) %
Diarrhea, Any Grade, No. of patients [2, 3]: 31
Diarrhea, Grade 3, No. of patients [2, 3]: 4
Diarrhea, Grade 4, No. of patients [2, 3]: 0
Dizziness, Any Grade, % of patients [2, 3]: (22.2) %
Dizziness, Any Grade, No. of patients [2, 3]: 10
Dizziness, Grade 3, No. of patients [2, 3]: 0
Dizziness, Grade 4, No. of patients [2, 3]: 0
Fatigue, Any Grade, % of patients [2, 3]: (57.8) %
Fatigue, Any Grade, No. of patients [2, 3]: 26
Fatigue, Grade 3, % of patients [2, 3]: (8.9) %
Fatigue, Grade 3, No. of patients [2, 3]: 4
Fatigue, Grade 4, No. of patients [2, 3]: 0
Febrile neutropenia, Any Grade, % of patients [2, 3]: (6.7) %
Febrile neutropenia, Any Grade, No. of patients [2, 3]: 3
Febrile neutropenia, Grade 3, % of patients [2, 3]: (6.7) %
Febrile neutropenia, Grade 3, No. of patients [2, 3]: 3
Febrile neutropenia, Grade 4, No. of patients [2, 3]: 0
Hypophosphatemia, Any Grade, % of patients [2, 3]: (20.0) %
Hypophosphatemia, Any Grade, No. of patients [2, 3]: 9
Hypophosphatemia, Grade 3, % of patients [2, 3]: (11.1) %
Hypophosphatemia, Grade 3, No. of patients [2, 3]: 5
Hypophosphatemia, Grade 4, No. of patients [2, 3]: 0
Nausea, Any Grade, % of patients [2, 3]: (66.7) %
Nausea, Any Grade, No. of patients [2, 3]: 30
Nausea, Grade 3, % of patients [2, 3]: (2.2) %
Nausea, Grade 3, No. of patients [2, 3]: 1
Nausea, Grade 4, No. of patients [2, 3]: 0
Neutropenia (incl. neutrophil count decreased), Any Grade, % of patients [2, 3]: (51.1) %
Neutropenia (incl. neutrophil count decreased), Any Grade, No. of patients [2, 3]: 23
Neutropenia, Grade 3, % of patients [2, 3]: (22.2) %
Neutropenia, Grade 3, No. of patients [2, 3]: 10
Neutropenia, Grade 4, % of patients [2, 3]: 15.6%
Neutropenia, Grade 4, No. of patients [2, 3]: 7
Pyrexia, Any Grade, % of patients [2, 3]: (24.4) %
Pyrexia, Any Grade, No. of patients [2, 3]: 11
Pyrexia, Grade 3, No. of patients [2, 3]: 0
Pyrexia, Grade 4, No. of patients [2, 3]: 0
Rash, Any Grade, % of patients [2, 3]: (22.2) %
Rash, Any Grade, No. of patients [2, 3]: 10
Rash, Grade 3, No. of patients [2, 3]: 0
Rash, Grade 4, No. of patients [2, 3]: 0
Vomiting, Any Grade, % of patients [2, 3]: (31.1) %
Vomiting, Any Grade, No. of patients [2, 3]: 14
Vomiting, Grade 3, % of patients [2, 3]: (2.2) %
Vomiting, Grade 3, No. of patients [2, 3]: 1
Vomiting, Grade 4, No. of patients [2, 3]: 0
AEs leading to death or treatment-related deaths [2, 4]: No AEs leading to death or treatment-related deaths were reported
Peripheral neuropathy or cardiovascular AEs of grade 3 or higher [2, 4]: No cases
